Measured values taken from PMC11082193, “Enzymatic synthesis of mono- and trifluorinated alanine enantiomers expands the scope of fluorine biocatalysis” (Communications Chemistry, 2024).

Assays:
[1] = molecular target: T1, SlALR (Streptomyces lavendulae, UniProt Q65YW7); test: HPLC of released pyruvate; assay type: biochemical; details: beta-elimination of fluoride; 10 mM substrate, 0.02 or 0.1 μM enzyme, 50 μM pyridoxal 5'-phosphate, pH 8.0, 30 °C, 18 h
T1 construct: gene alr; expressed in E. coli BL21(DE3), Ni-NTA purified
T1 sequence (Q65YW7 2-378): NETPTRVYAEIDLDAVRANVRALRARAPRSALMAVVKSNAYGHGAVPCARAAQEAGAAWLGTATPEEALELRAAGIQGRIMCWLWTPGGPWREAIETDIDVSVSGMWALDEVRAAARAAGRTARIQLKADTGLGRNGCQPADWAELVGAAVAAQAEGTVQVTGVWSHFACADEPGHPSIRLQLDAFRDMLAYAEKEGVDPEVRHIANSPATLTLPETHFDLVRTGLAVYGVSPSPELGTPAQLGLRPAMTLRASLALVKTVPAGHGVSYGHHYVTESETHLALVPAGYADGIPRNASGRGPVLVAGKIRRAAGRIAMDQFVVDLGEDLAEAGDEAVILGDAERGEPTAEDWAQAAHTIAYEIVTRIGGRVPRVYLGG

[2] = molecular target: T2, NAD-PseFDH (Pseudomonas sp. 101, UniProt P33160); test: FDH activity assay with formate; assay type: biochemical
T2 construct: N-terminal His6 tag followed by TEV site (His6 purified); source plasmid pZ-ASL; expressed in E. coli BL21(DE3)
T2 sequence (P33160 2-401): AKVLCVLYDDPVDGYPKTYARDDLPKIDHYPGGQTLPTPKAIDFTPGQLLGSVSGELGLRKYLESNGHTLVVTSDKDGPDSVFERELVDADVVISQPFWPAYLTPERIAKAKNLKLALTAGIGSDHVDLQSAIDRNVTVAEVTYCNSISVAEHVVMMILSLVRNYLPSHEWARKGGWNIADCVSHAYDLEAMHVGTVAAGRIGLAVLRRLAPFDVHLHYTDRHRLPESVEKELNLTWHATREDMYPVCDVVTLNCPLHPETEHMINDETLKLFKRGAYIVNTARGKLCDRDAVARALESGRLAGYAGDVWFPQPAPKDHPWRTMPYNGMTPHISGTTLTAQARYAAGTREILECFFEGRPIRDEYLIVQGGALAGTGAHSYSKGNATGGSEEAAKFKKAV

[3] = system: CC(=O)C(=O)O; test: purified protein; assay type: biochemical, Vibrio proteolyticus; details: reductive amination, 0.5 mM NADH, 200 mM NH4Cl, 50 mM sodium phosphate pH 8.0, 30 °C
[4] = system: O=C(O)C(=O)CF; test: purified protein; assay type: biochemical, Vibrio proteolyticus; details: reductive amination, 0.5 mM NADH, 200 mM NH4Cl, 50 mM sodium phosphate pH 8.0, 30 °C
[5] = substrate: CC(=O)C(=O)O; test: purified protein; assay type: biochemical, Symbiobacterium thermophilum; details: reductive amination, 0.5 mM NADPH, 200 mM NH4Cl, 50 mM sodium phosphate pH 8.0, 30 °C
[6] = substrate: O=C(O)C(=O)CF; test: purified protein; assay type: biochemical, Symbiobacterium thermophilum; details: reductive amination, 0.5 mM NADPH, 200 mM NH4Cl, 50 mM sodium phosphate pH 8.0, 30 °C

Molecule: N[C@H](CF)C(=O)O [(S)-FAla, (S)-3-fluoroalanine]
- HPLC of released pyruvate [1]: (R)-FAla and (S)-FAla were transformed by ^SlALR into Pyr

Molecule: NC(=O)c1ccc[n+]([C@@H]2O[C@H](COP(=O)(O)OP(=O)(O)OC[C@H]3O[C@@H](n4cnc5c(N)ncnc54)[C@H](O)[C@@H]3O)[C@@H](O)[C@H]2O)c1 [NAD^+]
- FDH activity assay with formate ([2]; formate as co-substrate): confirmed the high specificity for either cofactor of the purified NAD-^PseFDH and NADP-^PseFDH enzymes

Molecule: N[C@@H](CF)C(=O)O [(R)-FAla, (R)-3-fluoroalanine]
- HPLC of released pyruvate [1]: (R)-FAla and (S)-FAla were transformed by ^SlALR into Pyr

Molecule: VpALD (Vibrio proteolyticus)
- Km [3]: 0.29 ± 0.04 mM
- Vmax [3]: 247 µmol/min/mg
- kcat [3]: 173 ± 8 s⁻¹
- kcat/Km [3]: 597000 M⁻¹ s⁻¹
- Km [4]: 0.18 ± 0.02 mM
- Vmax [4]: 11.9 µmol/min/mg
- kcat [4]: 8.3 ± 0.3 s⁻¹
- kcat/Km [4]: 46100 M⁻¹ s⁻¹

Molecule: O=CO [formate]
- FDH activity assay with formate ([2]; NAD+ as co-substrate): the functionality of both ^PseFDH enzymes was verified on formate

B1: StDAPDH (Symbiobacterium thermophilum IAM 14863) (protein)
chain: DKLRVAVVGYGNVGRYALEAVQAAPDMELVGVVRRKVLAATPPELTGVRVVTDISQLEGVQGALLCVPTRSVPEYAEAMLRRGIHTVDSYDIHGDLADLRRRLDPVAREHGAAAVISAGWDPGTDSIIRALLEFMAPKGITYTNFGPGMSMGHSVAVKAIPGVRDALSMTIPAGMGVHKRAVYVELEPGADFAEVERAIKTDPYFVRDETRVTQVESVSALMDVGHGVVMERKGVSGATHNQLFRFEMRINNPALTAQVMVAALRAAARQKPGCYTMIEIPVIDYLPGDREAWIRKLV
notes: expressed in E. coli BL21(DE3), Ni-NTA purified
- Km [5]: 6.7 ± 0.3 mM
- Vmax [5]: 1.81 µmol/min/mg
- kcat [5]: 1.05 ± 0.01 s⁻¹
- kcat/Km [5]: 160 M⁻¹ s⁻¹
- Km [6]: 14.0 ± 0.6 mM
- Vmax [6]: 0.161 µmol/min/mg
- kcat [6]: 0.093 ± 0.001 s⁻¹
- kcat/Km [6]: 6.6 M⁻¹ s⁻¹
